{"source": "paper PMC4232046", "about": "“The Janus transcription factor HapX controls fungal adaptation to both iron starvation and iron excess” (The EMBO Journal, 2014)", "proteins": {"B1": {"name": "Aspergillus fumigatus HapX(24–158) (domain or fragment, UniProt Q4WER3 24-158, looked up)", "chain": "SPSPGPGTPGSITSKEWVIPPRPKPGRKPATDTPPTKRKAQNRAAQRAFRERRAARVNELEEQIKKIEDEHEIHIAAFKEQITNLSREVEQCRSEMTWWRDRCHALEKEVSVERSAKEAIVKEFRSSLSDREAVR", "notes": "Cloned in pMAL-c2X with an extended N-terminus including a TEV site; Theoretical mass of the dimer 31.36 kDa; also called peptide corresponding to residues 24–158 of HapX"}}, "target": "the molecule itself", "assay": "SEC-MALS; static light scattering (miniDawn TREOS, Optilab T-rEX refractometer) after Superdex 200 10/300 GL; molar mass by ASTRA 6"}
{"protein": "B1", "values": [{"measurement": "stoichiometry N", "result": 2}]}
